The values below come from patent US20240400715A1 (VIBRANT PHARMA, published 2024).

Experiment [1] deals with T1, human CD3ε/δ (ACRO systems, CDD-H52W1) (human, UniProt P07766 23-126; P04234 22-105).
T1 construct: bought recombinant heterodimer; also called human CD3 epsilon/delta; Human CD3ε/CD3δ
Briefly: serum-stability ELISA, Day 1 vs Day 0.
Method: (§1) The samples to be tested were centrifuged at 4° C. at 12000 rpm for 30 minutes to remove the precipitate. 200 μl of each sample to be tested (0.5 mg/ml) was collected in a 1.5 ml Eppendorf tube. An equal volume of human serum (GEMINI, H2OYOOK) was added, mixed thoroughly, and the mixture was incubated in a 37° C. constant temperature CO₂ incubator. For a total of 10 days, 40 μl samples was aspirated every day and stored at −20° C.
(§2) Enzyme-linked immunosorbent assay (ELISA) was used to test the bispecific antibodies' binding to human CEA and human CD3 epsilon/delta antigen. The steps are as follows: the antigen human CD3ε/δ (ACRO systems, CDD-H52W1) and the recombinant tumor antigen human CEA (CEACAM-5/CD66e, ACRO systems, CE5-H5226) were diluted to 1 μg/ml with PBS, and then added to the 96-well plate at 100 μl per well. The wells were coated overnight at 4° C. After washing 3 times with 0.05% PBST, 200 μl 5% skimmed milk powder was added to each well and incubated at 37° C. for 2 h. After washing 3 times with 0.05% PBST, 100 μl primary antibody sample (10 μg/ml) was added to each well, and incubated at 37° C. for 2 h. After washing 3 times with 0.05% PBST, 100 μl (1:6000) diluted secondary antibody goat anti-human Fc-HRP (sigma, A2170) was added to each well, incubated at room temperature for 1 h. After washing 8 times with 0.05% PBST, 50 μl TMB color developing solution was added to each well, and incubated at room temperature for 10-15 min. 50 μl 1 mM HCl was added to each well to stop the color development. 450 nm Absorbance (OD) was read.
(§3) The binding of antibodies to antigen was calculated according to the following formula: Binding (%)=[(ODdayn−ODb)/(ODday0−ODb)]×100%. ODdayn: experimental well (the protein was stored in the serum for n days); ODday0: control well (the protein was not stored in the serum); ODb: blank well (no primary antibody added).

Experiment [2] concerns the target T1, human CD3ε/δ (ACRO systems, CDD-H52W1). Briefly: serum-stability ELISA, Day 2 vs Day 0.
Method: as §1, §2, §3
The target is the same in experiment [3]. Briefly: serum-stability ELISA, Day 5 vs Day 0.
Method: as §1, §2, §3
For experiment [4] the target is unchanged. Briefly: serum-stability ELISA, Day 6 vs Day 0.
Method: as §1, §2, §3
For experiment [5] the target is unchanged. Put plainly: serum-stability ELISA, Day 7 vs Day 0. For orientation: In an ELISA, binding on a coated surface is turned into a signal by an enzyme label.
For experiment [6] the target is unchanged. Briefly: serum-stability ELISA, Day 9 vs Day 0.
Experiment [7] has the same target. Briefly: serum-stability ELISA, Day 10 vs Day 0.
For experiment [8] the target is unchanged. Briefly: serum-stability ELISA, Day 0 (reference).
For experiment [9] the target is unchanged. Put plainly: serum-stability ELISA, Day 1 vs Day 0. This is another data set of the same source.
Method: as §1, §2, §3
For experiment [10] the target is unchanged. Briefly: serum-stability ELISA, Day 2 vs Day 0. The source holds these as a separate data set.
Method: as §1, §2, §3
Experiment [11] has the same target. Briefly: serum-stability ELISA, Day 5 vs Day 0. This is another data set of the same source.
Method: as §1, §2, §3
The target is the same in experiment [12]. Briefly: serum-stability ELISA, Day 6 vs Day 0. This is another data set of the same source.
Method: as §1, §2, §3
The target is the same in experiment [13]. Put plainly: serum-stability ELISA, Day 7 vs Day 0. This is another data set of the same source.
Method: as §1, §2, §3
Experiment [14] shares this target. Put plainly: serum-stability ELISA, Day 9 vs Day 0. The source holds these as a separate data set.
Method: as §1, §2, §3
Experiment [15] shares this target. Put plainly: serum-stability ELISA, Day 10 vs Day 0. The source holds these as a separate data set.
Method: as §1, §2, §3
For experiment [16] the target is unchanged. Put plainly: serum-stability ELISA, Day 0 (reference). This is another data set of the same source.

Where a chain is given by its changes, count along the chain named.

B1: 112 (Knob-CEA+Hole-Fab) (bispecific antibody, human IgG4 S228P, kappa, F234A L235A)
chain: ESKYGPPCPPCPAPEAAGGPSVFLFPPKPKDTLMISRTPEVTCVVVDVSQEDPEVQFNWYVDGVEVHNAKTKPREEQFNSTYRVVSVLTVLHQDWLNGKEYKCKVSNKGLPSSIEKTISKAKGQPREPQVYTLPPCQEEMTKNQVSLWCLVKGFYPSDIAVEWESNGQPENNYKTTPPVLDSDGSFFLYSRLTVDKSRWQEGNVFSCSVMHEALHNHYTQKSLSLSLGGGGSGGGGSEVQLVESGGGFVQAGESLTLSCTSSTLTFTPYRMAWYRQAPGKQRDLVADISSGDGRTTNYADFAKGRFTISRDNIKNTVFLRMTNLKPEDTAVYYCNTFVSFVGIARSWGQGTQVTVSS
heavy: ESKYGPPCPPCPAPEAAGGPSVFLFPPKPKDTLMISRTPEVTCVVVDVSQEDPEVQFNWYVDGVEVHNAKTKPREEQFNSTYRVVSVLTVLHQDWLNGKEYKCKVSNKGLPSSIEKTISKAKGQPREPQVCTLPPSQEEMTKNQVSLSCAVKGFYPSDIAVEWESNGQPENNYKTTPPVLDSDGSFFLVSRLTVDKSRWQEGNVFSCSVMHEALHNRFTQKSLSLSLGGGGSGGGGSEVKLLESGGGLVQPKGSLKLSCAASGFTFNTYAMNWVRQAPGKGLEWVARIRSKYNNYATYYADSVKDRFTISRDDSQSILYLQMNNLKTEDTAMYYCVRHGNFGNSYVSWFAYWGQGTLVTVSSASTKGPSVFPLAPCSRSTSESTAALGCLVKDYFPEPVTVSWNSGALTSGVHTFPAVLQSSGLYSLSSVVTVPSSSLGTKTYTCNVDHKPSNTKVDKRV
light: QAVVTQESALTTSPGETVTLTCRSSTGAVTTSNYANWVQEKPDHLFTGLIGGTNKRAPGVPARFSGSLIGDKAALTITGAQTEDEAIYFCALWYSNLWVFGGGTKVEIKRTVAAPSVFIFPPSDEQLKSGTASVVCLLNNFYPREAKVQWKVDNALQSGNSQESVTEQDSKDSTYSLSSTLTLSKADYEKHKVYACEVTHQGLSSPVTKSFNRGEC
notes: TA1 Fab, C17 VHH, IgG4 Fc KIH
In the case of B1, the Binding % was 99% in experiment [1]; 102% in experiment [2]; 104% in experiment [3]; 110% in [4]; 104% in experiment [5]; 102% in [6]. Besides, the results for the Binding % in [7] and in experiment [8] were 98.4% and 100%, respectively.

B2: 201 (CEA-Fab-Knob-+Hole) (bispecific antibody, human IgG4 S228P, kappa, F234A L235A)
heavy: EVKLLESGGGLVQPKGSLKLSCAASGFTFNTYAMNWVRQAPGKGLEWVARIRSKYNNYATYYADSVKDRFTISRDDSQSILYLQMNNLKTEDTAMYYCVRHGNFGNSYVSWFAYWGQGTLVTVSSASTKGPSVFPLAPCSRSTSESTAALGCLVKDYFPEPVTVSWNSGALTSGVHTFPAVLQSSGLYSLSSVVTVPSSSLGTKTYTCNVDHKPSNTKVDKRVESKYGPPCPPCPAPEAAGGPSVFLFPPKPKDTLMISRTPEVTCVVVDVSQEDPEVQFNWYVDGVEVHNAKTKPREEQFNSTYRVVSVLTVLHQDWLNGKEYKCKVSNKGLPSSIEKTISKAKGQPREPQVYTLPPCQEEMTKNQVSLWCLVKGFYPSDIAVEWESNGQPENNYKTTPPVLDSDGSFFLYSRLTVDKSRWQEGNVFSCSVMHEALHNHYTQKSLSLSL
chain: ESKYGPPCPPCPAPEAAGGPSVFLFPPKPKDTLMISRTPEVTCVVVDVSQEDPEVQFNWYVDGVEVHNAKTKPREEQFNSTYRVVSVLTVLHQDWLNGKEYKCKVSNKGLPSSIEKTISKAKGQPREPQVCTLPPSQEEMTKNQVSLSCAVKGFYPSDIAVEWESNGQPENNYKTTPPVLDSDGSFFLVSRLTVDKSRWQEGNVFSCSVMHEALHNRFTQKSLSLSL
light: QAVVTQESALTTSPGETVTLTCRSSTGAVTTSNYANWVQEKPDHLFTGLIGGTNKRAPGVPARFSGSLIGDKAALTITGAQTEDEAIYFCALWYSNLWVFGGGTKVEIKRTVAAPSVFIFPPSDEQLKSGTASVVCLLNNFYPREAKVQWKVDNALQSGNSQESVTEQDSKDSTYSLSSTLTLSKADYEKHKVYACEVTHQGLSSPVTKSFNRGECGGGGSGGGGSEVQLVESGGGFVQAGESLTLSCTSSTLTFTPYRMAWYRQAPGKQRDLVADISSGDGRTTNYADFAKGRFTISRDNIKNTVFLRMTNLKPEDTAVYYCNTFVSFVGIARSWGQGTQVTVSS
notes: VHH fused after CL of the light chain
In the case of B2, the Binding % amounted to 104% in experiment [9]; 76.3% in [10]; 105% in experiment [11]; 102% in experiment [12]; 104% in [13]; 101% in experiment [14]. Moreover, the Binding % in [15] worked out at 98.8%; in [16], 100%.

B3: 203 (CEA-Fab-Knob-+Hole) (bispecific antibody, human IgG4 S228P, kappa, F234A L235A)
heavy: B2 heavy
chain: B2 chain
light: EVQLVESGGGFVQAGESLTLSCTSSTLTFTPYRMAWYRQAPGKQRDLVADISSGDGRTTNYADFAKGRFTISRDNIKNTVFLRMTNLKPEDTAVYYCNTFVSFVGIARSWGQGTQVTVSSGGGGSGGGGSQAVVTQESALTTSPGETVTLTCRSSTGAVTTSNYANWVQEKPDHLFTGLIGGTNKRAPGVPARFSGSLIGDKAALTITGAQTEDEAIYFCALWYSNLWVFGGGTKVEIKRTVAAPSVFIFPPSDEQLKSGTASVVCLLNNFYPREAKVQWKVDNALQSGNSQESVTEQDSKDSTYSLSSTLTLSKADYEKHKVYACEVTHQGLSSPVTKSFNRGEC
notes: VHH fused before VL of the light chain
On to B3, for which the Binding % in [9] was found to be 103%; in [10], 85.3%; in experiment [11] it was 102%; in experiment [12], 101%; in [13], 106%; in [14] it was 103%. Also, the values for the Binding % in experiment [15] and in experiment [16] were 101% and 100%, respectively.

B4: 204 (Knob+CEA-Fab-Hole) (bispecific antibody, human IgG4 S228P, kappa, F234A L235A)
chain: B2 chain with C131Y, S136C, S148W, A150L, V189Y, R217H, F218Y
heavy: B2 heavy with Y354C, C359S, W371S, L373A, Y412V, H440R, Y441F
light: B3 light
notes: as for B3
Take B4: the Binding % is 105% in experiment [9]; 102% in [10]; 99.8% in [11]; 103% in experiment [12]; 103% in [13]; 105% in experiment [14]. The values for the Binding % in [15] and in [16] were 99.4% and 100%, respectively.

B5: 202 (Knob+CEA-Fab-Hole) (bispecific antibody, human IgG4 S228P, kappa, F234A L235A)
chain: B2 chain with C131Y, S136C, S148W, A150L, V189Y, R217H, F218Y
heavy: B2 heavy with Y354C, C359S, W371S, L373A, Y412V, H440R, Y441F
light: B2 light
notes: as for B2
As to B5, the Binding % in experiment [9] stood at 108%; in experiment [10] it was 86.8%; in experiment [11], 110%; in experiment [12] it was 108%; in [13], 108%; in [14], 104%. The values for the Binding % in [15] and in experiment [16] were 99.1% and 100%, respectively.
